Reference: patent US20240376185A1 (SMIVET B V, published 2024)

B1: SVT15L-3FW4M (VHH)
VHH: QVQLQESGGGLVQTGGSLRLSCRASGRAFANYHFGWFRQAPGKDREFVASISWKGGSTYYANFALGRFTSSVDRAESSVYLQMSGLTPEDTATYYCAAHDGGDWNYHTGMDYWGQGTQVTVSS
B2: SVT05 (VHH)
VHH: QVQLQESGGGLVQPGGSLRLSCSASGFSFTDDYGIGWFRSGPGKGREAVAPIADREAVAAIALSDGNTYYSASAKGRFTISRDNAKSTAYLQMNNLKPEDTATYYCAADFWGYGMSWPMATLWEYWGQGIQVTVSS
B3: SVT22 (VHH)
VHH: QVQLQESGGGLVQAGESLRLSCTASGISFDDYAIGWFRQAPGQQRKGVACISKADGRTDYLGSVKGRFTLSTDNTKNTVHLQMNNLKPEDTALYTCAAEYKSCGMGYKPIDYWGQGMQVTVSS
B4: SVT08L (VHH)
VHH: QVQLQESGGGSVQAGGSLRLSCTASEFSYNDYTIAWFRRAAGKGRVEDGEGVASITTSYDRAYDNRIHYGDSVKGRFTISRDNAKNTVYLQMTNLNPSDTAVYYCGLDITPPGGIGASLTEGFLFDYWGQGTQVTVSS
B5: SVT06L (VHH)
VHH: QVQLQESGGGSVQAGGSLRLSCTASELSYDDYTIAWFRRAAGEGRVEDGEGVASITKSYDRAYDNKINYGHSVKGRFTISRDNAKNTVYLQMTDLLPSDTAVYYCALDITPPGGVGASLTEGFLFDYWGQGTQVTVSS

Key:
[1] = molecular target: T1, tetanus neurotoxin (TeNT), authentic tetanus holotoxin (Clostridium tetani, UniProt P04958 2-1315); test: GT1b-TeNT inhibition ELISA
T1 sequence (P04958 2-457 limits assumed, chain 1 of 2): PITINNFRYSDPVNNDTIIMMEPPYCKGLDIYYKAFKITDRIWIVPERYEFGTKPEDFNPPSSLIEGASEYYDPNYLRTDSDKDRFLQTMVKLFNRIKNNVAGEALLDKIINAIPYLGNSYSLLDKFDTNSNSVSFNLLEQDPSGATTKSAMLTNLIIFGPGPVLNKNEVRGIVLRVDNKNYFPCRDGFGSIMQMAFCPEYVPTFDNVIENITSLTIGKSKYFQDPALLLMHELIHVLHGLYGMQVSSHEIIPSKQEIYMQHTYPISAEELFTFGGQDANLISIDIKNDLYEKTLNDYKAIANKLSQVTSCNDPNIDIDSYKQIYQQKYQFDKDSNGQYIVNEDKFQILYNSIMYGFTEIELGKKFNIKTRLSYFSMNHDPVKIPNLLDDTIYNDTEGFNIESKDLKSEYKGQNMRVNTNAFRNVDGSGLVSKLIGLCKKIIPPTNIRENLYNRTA
T1 sequence (P04958 458-1315 limits assumed, chain 2 of 2): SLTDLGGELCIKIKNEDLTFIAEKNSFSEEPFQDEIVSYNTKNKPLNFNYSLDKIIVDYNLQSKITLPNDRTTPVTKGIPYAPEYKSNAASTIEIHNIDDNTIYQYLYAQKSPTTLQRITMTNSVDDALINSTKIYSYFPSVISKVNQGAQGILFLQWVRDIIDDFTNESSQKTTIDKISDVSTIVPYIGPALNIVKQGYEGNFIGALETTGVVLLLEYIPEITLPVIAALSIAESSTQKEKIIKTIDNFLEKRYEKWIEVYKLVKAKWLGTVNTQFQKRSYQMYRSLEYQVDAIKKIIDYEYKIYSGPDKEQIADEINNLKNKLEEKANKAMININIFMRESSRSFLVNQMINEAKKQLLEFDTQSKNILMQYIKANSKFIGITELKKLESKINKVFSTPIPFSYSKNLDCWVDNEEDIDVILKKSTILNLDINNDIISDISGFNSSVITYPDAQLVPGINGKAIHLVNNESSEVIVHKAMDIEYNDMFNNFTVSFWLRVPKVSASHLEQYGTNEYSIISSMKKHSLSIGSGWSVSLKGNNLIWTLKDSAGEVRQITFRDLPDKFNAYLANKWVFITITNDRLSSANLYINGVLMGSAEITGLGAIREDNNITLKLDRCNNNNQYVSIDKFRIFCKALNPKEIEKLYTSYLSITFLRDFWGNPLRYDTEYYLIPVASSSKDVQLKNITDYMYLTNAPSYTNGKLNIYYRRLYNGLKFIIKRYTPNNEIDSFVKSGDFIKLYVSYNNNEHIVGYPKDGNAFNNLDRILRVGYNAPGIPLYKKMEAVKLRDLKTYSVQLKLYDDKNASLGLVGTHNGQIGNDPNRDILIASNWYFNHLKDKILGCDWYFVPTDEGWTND

[2] = molecular target: T1, tetanus neurotoxin (TeNT), authentic …; test: GT1b-TeNT inhibition ELISA; remark: listed apart in the source
[3] = molecular target: T1, tetanus neurotoxin (TeNT), authentic …; test: ELISA: directly coated TeNT, anti-his6 PO
[4] = molecular target: T1, tetanus neurotoxin (TeNT), authentic …; test: ELISA: directly coated TeNT, anti-his6 PO; remark: listed apart in the source
[5] = molecular target: T1, tetanus neurotoxin (TeNT), authentic …; test: ELISA: directly coated TeNT, goat anti-llama Ig PO
[6] = molecular target: T1, tetanus neurotoxin (TeNT), authentic …; test: ELISA: directly coated TeNT, goat anti-llama Ig PO; remark: listed apart in the source
[7] = molecular target: T1, tetanus neurotoxin (TeNT), authentic …; test: bridging ELISA: coated TeNT, SDA, biotinylated TeNT, StrepPO (bivalent binding)
[8] = molecular target: T1, tetanus neurotoxin (TeNT), authentic …; test: as above; remark: listed apart in the source
[9] = molecular target: T2, tetanus neurotoxin (TeNT), authentic tetanus holotoxin (Clostridium tetani, UniProt P04958 2-1315); test: ELISA, directly coated TeNT, E. coli supernatant
T2 sequence (P04958 2-457 limits assumed, chain 1 of 2): as the sequence (P04958 2-457 limits assumed, chain 1 of 2) above
T2 sequence (P04958 458-1315 limits assumed, chain 2 of 2): as the sequence (P04958 458-1315 limits assumed, chain 2 of 2) above

[10] = molecular target: T3, recombinant tetanus toxin fragment C (rTTC) (Clostridium tetani, UniProt P04958 865-1315); test: ELISA, directly coated rTTC, E. coli supernatant
T3 sequence: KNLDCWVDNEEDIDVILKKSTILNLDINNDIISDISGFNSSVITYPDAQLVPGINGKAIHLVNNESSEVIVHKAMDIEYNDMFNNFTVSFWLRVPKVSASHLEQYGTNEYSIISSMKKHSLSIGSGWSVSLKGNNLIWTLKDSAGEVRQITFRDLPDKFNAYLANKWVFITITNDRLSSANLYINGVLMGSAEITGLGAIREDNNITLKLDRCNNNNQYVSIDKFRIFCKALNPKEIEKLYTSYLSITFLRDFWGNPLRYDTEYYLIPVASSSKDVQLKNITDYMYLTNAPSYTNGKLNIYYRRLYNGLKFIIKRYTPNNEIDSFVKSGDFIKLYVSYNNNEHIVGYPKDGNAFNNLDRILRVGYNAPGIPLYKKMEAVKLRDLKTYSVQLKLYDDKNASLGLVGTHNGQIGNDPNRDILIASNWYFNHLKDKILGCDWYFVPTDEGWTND

[11] = molecular target: T2, tetanus neurotoxin (TeNT), authentic …; test: ELISA, cAb-TT2 captured TeNT, E. coli supernatant
[12] = molecular target: T2, tetanus neurotoxin (TeNT), authentic …; test: GT1b-TeNT inhibition ELISA (no SDA: 1.302, 1.257)
[13] = molecular target: T4, tetanus neurotoxin (TeNT), authentic tetanus holotoxin (Clostridium tetani, UniProt P04958 2-1315); test: GT1b-TeNT inhibition ELISA, EC at A450 0.59
Target sequence in this assay (P04958 2-457 limits assumed, chain 1 of 2): as the sequence (P04958 2-457 limits assumed, chain 1 of 2) above
Target sequence in this assay (P04958 458-1315 limits assumed, chain 2 of 2): as the sequence (P04958 458-1315 limits assumed, chain 2 of 2) above

[14] = molecular target: T4, tetanus neurotoxin (TeNT), authentic …; test: GT1b-TeNT inhibition ELISA, unlabelled binder
Target sequence in this assay (P04958 2-457 limits assumed, chain 1 of 2): as the sequence (P04958 2-457 limits assumed, chain 1 of 2) above
Target sequence in this assay (P04958 458-1315 limits assumed, chain 2 of 2): as the sequence (P04958 458-1315 limits assumed, chain 2 of 2) above

[15] = molecular target: T4, tetanus neurotoxin (TeNT), authentic …; test: ELISA, directly coated TeNT, unlabelled binder
Target sequence in this assay (P04958 2-457 limits assumed, chain 1 of 2): as the sequence (P04958 2-457 limits assumed, chain 1 of 2) above
Target sequence in this assay (P04958 458-1315 limits assumed, chain 2 of 2): as the sequence (P04958 458-1315 limits assumed, chain 2 of 2) above

[16] = molecular target: T5, recombinant tetanus toxin fragment C (rTTC) (Clostridium tetani, UniProt P04958 865-1315); test: ELISA, directly coated rTTC, unlabelled binder
T5 sequence: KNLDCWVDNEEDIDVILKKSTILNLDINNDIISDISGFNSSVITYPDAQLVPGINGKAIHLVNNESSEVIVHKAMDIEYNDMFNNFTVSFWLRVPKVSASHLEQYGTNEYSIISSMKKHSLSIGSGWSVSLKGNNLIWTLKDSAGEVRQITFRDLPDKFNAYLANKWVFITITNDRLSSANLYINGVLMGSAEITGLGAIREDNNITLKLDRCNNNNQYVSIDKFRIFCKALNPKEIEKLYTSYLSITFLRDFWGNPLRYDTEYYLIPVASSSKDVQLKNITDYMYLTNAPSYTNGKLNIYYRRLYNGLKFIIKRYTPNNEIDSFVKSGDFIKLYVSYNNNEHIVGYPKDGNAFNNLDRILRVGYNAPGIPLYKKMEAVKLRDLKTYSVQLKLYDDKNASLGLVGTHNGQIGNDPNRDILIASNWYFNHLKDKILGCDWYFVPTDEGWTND

[17] = molecular target: T4, tetanus neurotoxin (TeNT), authentic …; test: ELISA, directly coated TeNT, biotinylated binder
Target sequence in this assay (P04958 2-457 limits assumed, chain 1 of 2): as the sequence (P04958 2-457 limits assumed, chain 1 of 2) above
Target sequence in this assay (P04958 458-1315 limits assumed, chain 2 of 2): as the sequence (P04958 458-1315 limits assumed, chain 2 of 2) above

[18] = molecular target: T4, tetanus neurotoxin (TeNT), authentic …; test: ELISA, TeNT captured with cAb-TT2, unlabelled binder
[19] = molecular target: T4, tetanus neurotoxin (TeNT), authentic …; test: ELISA, TeNT captured with cAb-TT2, biotinylated binder
[20] = molecular target: T4, tetanus neurotoxin (TeNT), authentic …; test: competition ELISA on TeNT, binder biotinylated; competitor SVT02L
[21] = molecular target: T4, tetanus neurotoxin (TeNT), authentic …; test: competition ELISA on TeNT, binder biotinylated; competitor SVT03L
[22] = molecular target: T4, tetanus neurotoxin (TeNT), authentic …; test: competition ELISA on TeNT, binder biotinylated; competitor SVT06L
[23] = molecular target: T4, tetanus neurotoxin (TeNT), authentic …; test: competition ELISA on TeNT, binder biotinylated; competitor SVT08L
[24] = molecular target: T4, tetanus neurotoxin (TeNT), authentic …; test: competition ELISA on TeNT, binder biotinylated; competitor SVT13L
[25] = molecular target: T4, tetanus neurotoxin (TeNT), authentic …; test: competition ELISA on TeNT, binder biotinylated; competitor SVT15L
[26] = molecular target: T4, tetanus neurotoxin (TeNT), authentic …; test: competition ELISA on TeNT, binder biotinylated; competitor SVT16L
[27] = molecular target: T4, tetanus neurotoxin (TeNT), authentic …; test: competition ELISA on TeNT, binder biotinylated; competitor SVT22L
[28] = molecular target: T4, tetanus neurotoxin (TeNT), authentic …; test: competition ELISA on TeNT, binder biotinylated; competitor SVT34L
[29] = molecular target: T4, tetanus neurotoxin (TeNT), authentic …; test: competition ELISA on TeNT, binder biotinylated; competitor mAb 6E7
[30] = molecular target: T4, tetanus neurotoxin (TeNT), authentic …; test: competition ELISA on TeNT, binder biotinylated; competitor mAb 14F5
[31] = molecular target: T4, tetanus neurotoxin (TeNT), authentic …; test: competition ELISA on TeNT, binder biotinylated; competitor mAb 6F57
[32] = molecular target: T4, tetanus neurotoxin (TeNT), authentic …; test: competition ELISA on TeNT, binder biotinylated; competitor mAb 11n185
[33] = molecular target: T4, tetanus neurotoxin (TeNT), authentic …; test: competition ELISA on TeNT, binder biotinylated; competitor SVT15L-3FW4M

Binder | absorbance at 450 nm [9] [A450] | absorbance at 450 nm [10] [A450] | absorbance at 450 nm [11] [A450] | absorbance at 450 nm [12] [A450] | concentration giving A450 of 0.59 [13] [µg/mL] | minimal absorbance at 450 nm [14] | EC resulting in A450 0.2 [15] [ng/mL] | maximal absorbance at 450 nm [15] | maximal absorbance at 450 nm [16] | EC resulting in A450 0.4 [17] [ng/mL] | maximal absorbance at 450 nm [17] | EC resulting in A450 0.15 [18] [ng/mL] | maximal absorbance at 450 nm [18] | EC resulting in A450 0.2 [19] [ng/mL] | maximal absorbance at 450 nm [19] | % inhibition of binding [20] [%] | % inhibition of binding [21] [%] | % inhibition of binding [22] [%] | % inhibition of binding [23] [%] | % inhibition of binding [24] [%] | further results
B1 |  |  |  |  |  |  |  |  |  |  |  |  |  |  |  |  |  |  |  |  | minimal absorbance value (GT1b-TeNT inhibition) [1]: 0.19 A450; Effective SDA Concentration at A450 0.56 [2]: 31 ng/mL; maximal absorbance value [3]: 0.19 A450; Effective SDA Concentration at A450 0.15 [4]: 26 ng/mL; maximal absorbance value [5]: 0.35 A450; Effective SDA Concentration at A450 0.15 [6]: 6 ng/mL; maximal absorbance value [7]: 0.2 A450; Effective SDA Concentration at A450 0.3 [8]: > 1000 ng/mL
B2 | 1.04 | 0.108 | 0.548 | 0.985 |  |  |  |  |  |  |  |  |  |  |  |  |  |  |  |  | 
B3 | 1.08 | 0.138 | 0.299 | 0.137 |  |  |  |  |  |  |  |  |  |  |  |  |  |  |  |  | 
B4 |  |  |  |  | 0.411 | 0.486 | 2.2 | 1.37 | 0.502 | 0.4 | 1.57 | 3.6 | 0.36 | 0.52 | 1.2 | 7 | 0 | 95 | 96 | 5 | % inhibition of binding [25]: 6%; % inhibition of binding [26]: 8%; % inhibition of binding [27]: 6%; % inhibition of binding [28]: 8%; % inhibition of binding [29]: 66%; % inhibition of binding [30]: 3%; % inhibition of binding [31]: 50%; % inhibition of binding [32]: 4%; % inhibition of binding [33]: 12%
B5 |  |  |  |  | 0.317 | 0.481 | 1.7 | 1.39 | 0.543 | 0.39 | 1.51 | 2.6 | 0.409 | 0.37 | 1.2 | 11 | -3 | 96 | 97 | 7 | % inhibition of binding [25]: 14%; % inhibition of binding [26]: -3%; % inhibition of binding [27]: 3%; % inhibition of binding [28]: 11%; % inhibition of binding [29]: 67%; % inhibition of binding [30]: 11%; % inhibition of binding [31]: 53%; % inhibition of binding [32]: 5%; % inhibition of binding [33]: 12%
